Source: patent US20230106511A1, “PBP3 BINDING BICYCLIC PEPTIDE LIGANDS” (priority 2020, published 2023)

T1: PBP3 of E. coli (E. coli), P0AD68
T1 chain: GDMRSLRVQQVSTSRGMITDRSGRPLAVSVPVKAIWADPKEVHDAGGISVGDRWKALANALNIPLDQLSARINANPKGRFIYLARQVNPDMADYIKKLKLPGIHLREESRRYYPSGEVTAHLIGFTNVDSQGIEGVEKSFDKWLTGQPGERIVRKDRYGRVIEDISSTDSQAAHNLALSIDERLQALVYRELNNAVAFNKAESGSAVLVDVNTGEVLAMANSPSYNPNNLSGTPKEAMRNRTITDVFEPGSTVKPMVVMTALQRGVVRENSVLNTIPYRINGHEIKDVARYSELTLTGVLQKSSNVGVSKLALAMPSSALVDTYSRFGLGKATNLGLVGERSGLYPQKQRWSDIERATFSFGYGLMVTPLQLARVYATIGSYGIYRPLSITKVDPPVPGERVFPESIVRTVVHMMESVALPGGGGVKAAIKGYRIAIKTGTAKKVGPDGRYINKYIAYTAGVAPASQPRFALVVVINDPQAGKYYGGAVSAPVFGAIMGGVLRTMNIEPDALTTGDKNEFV


Biological target: T1, PBP3 of E. coli (E. coli), P0AD68
Experiment: FP competition, tracer BCY12820
Conditions: not given

Row | Molecule | Ki [nM]
1 | ACWFPNCPWVEGCA (modifications not checked) [BCY13764] | < 4080
2 | ACSFPACPWVEGCA (modifications not checked) [BCY13659] | 4
3 | CSFPKCPWVEGC (modifications not checked) [BCY12742] | 3
4 | ACQFPVCPWVEGCA (modifications not checked) [BCY13226] | 20
5 | CSFPKCPWVEGC (modifications not checked) [BCY13949] | 45400
6 | ACSFPKCPWVEACA (modifications not checked) [BCY13664] | 30
7 | ACAFPKCPWVEGCA (modifications not checked) [BCY13656] | 5
8 | ACSFPKCPWVEKCA (modifications not checked) [BCY13419] | 40
9 | ACVYPKCPWVEGCA (modifications not checked) [BCY13768] | < 3820

Each molecule was assayed against PBP3 (E. coli) (Escherichia coli, UniProt P0AD68) (assay: Fluorescence polarisation direct binding assay). Conditions: direct binding to PBP 3 (E. coli).
Chain of PBP3 (E. coli) (P0AD68 1-577): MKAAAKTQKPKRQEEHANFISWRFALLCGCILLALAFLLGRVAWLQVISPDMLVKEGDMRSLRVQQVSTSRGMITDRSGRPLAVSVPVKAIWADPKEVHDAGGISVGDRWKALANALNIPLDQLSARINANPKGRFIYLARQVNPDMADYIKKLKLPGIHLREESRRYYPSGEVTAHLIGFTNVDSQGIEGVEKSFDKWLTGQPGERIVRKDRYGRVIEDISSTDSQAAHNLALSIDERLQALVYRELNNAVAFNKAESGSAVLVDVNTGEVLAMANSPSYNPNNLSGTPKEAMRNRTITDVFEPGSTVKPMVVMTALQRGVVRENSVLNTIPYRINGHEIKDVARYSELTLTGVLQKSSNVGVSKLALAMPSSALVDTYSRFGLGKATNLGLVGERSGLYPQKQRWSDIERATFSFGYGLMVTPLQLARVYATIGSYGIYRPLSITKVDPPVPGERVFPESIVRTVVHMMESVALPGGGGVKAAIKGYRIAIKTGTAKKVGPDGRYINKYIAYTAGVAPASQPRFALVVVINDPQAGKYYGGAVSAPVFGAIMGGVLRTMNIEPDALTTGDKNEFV
Experimental: Fluorescent peptides at 10 mM in DMSO were diluted to 2.5 nM in binding buffer (10 mM HEPES, pH8, 300 mM NaCl, 2% glycerol). A two-fold dilution series of PBP protein was then prepared across 12 wells in binding buffer, with the highest concentration being 21 μM, and the lowest concentration being 17 nM.
10 μl diluted fluorescent peptide (2.5 nM) was added into 12 wells of a 384-Well NBS™ Low Volume Microplate (Fisher Scientific). 10 μl PBP dilution series was then added to the wells containing the fluorescent peptide, and 5 μl binding buffer was added to bring the total volume to 25 μl and the final concentration of peptide tracer to 1 nM. A control well lacking PBP protein was prepared with a final peptide concentration of 1 nM to a final volume of 25 μl in binding buffer. Fluorescence polarisation was measured every 5 minutes for a period of one hour at room temperature. The gain and focal height were optimised using the control well lacking protein.
Data were analysed in GraphPad software to derive values for the dissociation constant. Experiments were repeated at least three times.
Certain peptide ligands of the invention were tested in the above mentioned binding assay and the results are shown in Table 1 for binding to the indicated PBP: […]

Row | Molecule | Kd [nM]
10 | Cc1cc(C)n2c1C=C1C=CC(CCC(=O)Nc3ccc(OCC(=O)N[C@@H]4C(=O)N5[C@@H]4SC(C)(C)[C@@H]5C(=O)O)cc3)=[N+]1[B-]2(F)F [Bocillin] | 440

Biological target: T1, PBP3 of E. coli (E. coli), P0AD68
Experiment: fluorescence polarisation competition, BODIPY-labelled penicillin as tracer
Conditions: not given

Row | Molecule | Ki [nM]
11 | ACLENCYYVPYYGYACA (modifications not checked) [BCY12123] | 1390

These molecules were tested against unmodified PBP protein (assay: Fluorescence polarisation competition binding assay (BODIPY labelled penicillin tracer)). Conditions: competition with BODIPY labelled penicillin tracer.
Experimental: Fluorescence polarisation competition was carried out using a BODIPY labelled Penicillin tracer and unlabelled peptides, for competition to an unmodified PBP protein.
Fluorescent BODIPY labelled penicillin at 5 mM in DMSO were diluted to 6.25 nM in binding buffer (10 mM HEPES, pH8, 300 mM NaCl, 2% glycerol). Unmodified PBP were diluted to 2 μM in binding buffer. A two-fold dilution series of unmodified peptide was prepared across 12 wells in binding buffer, with the highest final well concentration being 60 μM, and the lowest concentration being […]. 5 μl of the unmodified peptide dilution series or Carbenicillin were added to 12 wells of a 384-Well NBS™ Low Volume Microplate (Fisher Scientific). 10 μl diluted fluorescent BODIPY labelled penicillin (6.25 nM) were then added to the 12 wells containing the unmodified peptide dilutions. 10 μl of unmodified PBP (2 μM) were then added to the 12 wells containing unmodified peptide and fluorescent BODIPY labelled penicillin to bring the total volume to 25 μl, and the final concentration of Fluorescent BODIPY labelled penicillin to 2.5 nM and unmodified PBP to 800 nM. […]
Fluorescence polarisation was measured every 5 minutes for a period of one hour at room temperature. […]
Data were analysed in GraphPad software to derive values for the inhibition constant. […]

Row | Molecule | Ki [nM]
12 | A-CiLENCiiYYVPYYGYACiii-A, TATA bicyclic peptide [BCY12123, A-(SEQ ID NO: 3)-A] | 1390
